{"source": "patent US20110131028A1", "about": "“CELL POPULATION SYSTEM AND PROCESS” (priority 2006, published 2011)", "molecules": {"B1": {"name": "IL-4: cytokine that affects B cell viability without stimulating cell division (protein, UniProt P05112 25-153, looked up)", "Interleukin-4": "HKCDITLQEIIKTLNSLTEQKTLCTELTVTDIFAASKNTTEKETFCRAATVLRQFYSHHEKDTRCLGATAQQFHRHKQLIRFLKRLDRNLWGLAGLNSCPVKEANQSTLENFLERLKTIMREKYSKCSS"}}, "tested_on": "B cells isolated from spleen", "assay": "Survival of unstimulated B cells in culture, lognormal time-to-die fit", "type": "cell-based", "conditions": "increasing IL-4 concentration; FIG. 3D", "method": "As indicated above, the probability distribution is determined by simulating the decreasing size of a cell population over time in the absence of cell division. For example, when naive T or B lymphocytes are purified from lymphoid tissue and placed in tissue culture without stimulation, they progressively die by apoptosis, apparently from the absence of homeostatic survival signals that are present in vivo. To determine a probability distribution representing probabilities for cell death, small resting B cells from spleen/lymphnode can be placed in culture under different conditions and their viability measured by propidium iodide uptake at step 202. Cell numbers can be counted by reference to beads, as described in Deenick.\nAt step 204, the two parameters of the lognormal probability distribution, namely the mean μ and standard deviation σ, are determined using a standard fitting procedure (the Matlab fmincon function) that varies μ and σ to obtain the closest match between the corresponding lognormal survival curve (i.e., the simulated ‘survival curve’ representing the decreasing size of the cell population over time, the curve being generated from a lognormal probability distribution representing probabilities for times to die with distribution parameters μ and σ) and the experimental data. […]"}
{"molecule": "B1", "values": [{"measurement": "mean time to die μ", "value": "increases"}]}
